For test [1], the target named is T1, NETL-1 cyclized synthetic peptide immunogen (cyclized on resin through the cysteines C4 and C27; N-terminal cysteine used for conjugation to maleimide-activated plates).
T1 construct: Aβ residues 9-18, then Pro-Asn, then the same ten residues backwards; also called cyclized peptide; the immunogen
T1 peptide: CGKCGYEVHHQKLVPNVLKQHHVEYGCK
Kind of test: indirect ELISA, peptide on maleimide-activated plate. From the text: (§1) The rationale behind the NETL-1 immunogen was that a more focused epitope formed by a cyclized peptide may restrict the response to a dimer structure derived from the chosen 10aa sequence with minimal or no induction of responses to the monomer 10aa peptide sequence found within full length Aβ40. Both responses were observed. We can account for this, in part, by the fact that there may always be a minimal epitope available for recognition that is cross-reactive with the monomer sequence no matter how small the peptide structure. Several monoclonal antibodies specific for both NETL-1 and NETL-2 were isolated. Two isolates, 7a and 1g stood out that bound to NETL-1 but not to NETL-2 or Aβ40. These isolates were sub-cloned for further characterization. Two isolated subclones, Mab 71A1 and 1G5 were chosen, grown in tissue culture and purified for confirmation of specificity and for future studies. Both 71A1 and 1G5 monoclonal antibodies bound to the cyclized peptide, NETL-1 and not to control wells, Aβ40 monomer peptide or control peptide NETL-2 (FIG. 2). FIG. 2 is a standard, indirect enzyme linked immunosorbent assay (ELISA) with the purified monoclonal antibodies assayed for binding to Aβ40, NETL 1 or NETL 2 peptides conjugated to malemide-activated (SH-reactive) micro titer plates. After one hour incubation, the wells were washed and then 100 ul of a secondary, Horseradish peroxidase (HRPO)-conjugated goat anti-mouse antibody was added and the plates, incubated for an additional hour before addition of TMB (3,3′,5,5′-Tetramethylbenzidine) substrate. Absorbance was measured in a spectrophotometer at 650 nm.

Test [2] concerns the target T2, full length Aβ40 with a C-terminal cysteine (conjugated to maleimide-activated plate through the added cysteine).
T2 construct: also called Aβ40 monomer peptide
Described as above.
Description: as §1

Test [3] concerns the target T3, S26C Aβ40 reduced by DTT to its monomeric form.
T3 construct: The dimer of m16 after reduction with DTT; also called reduced monomeric counterpart; monomeric Aβ
Kind of test: 71A1 capture / 3D6 detector sandwich immunoassay, S26C Aβ40 dimer native or reduced by DTT.

In a further test the target is T4, peptide mimetic 6.
T4 construct: As for peptide mimetic 1; also called peptide 6
T4 peptide: TPNNTTSHRYPD
Kind of test: phage display panning (Ph.D.-12 library) on immobilized 71A1. From the text:
(§2) A New England Biolabs (NEB) Ph.D.-12™ Phage Display Peptide Library Kit (instructions attached) was used to isolate amino acid residue peptide ligands (referred to herein as peptide mimetics) that bound to immobilized Mab 71A1. The New England Biolabs Ph.D.-12™ Phage Display Peptide Library Kit is a combinatorial library of random, 12 amino acid peptides (12-mers) fused to a minor coat protein (pIII) of the M13 bacteriophage. The peptide was expressed as a fusion with a coat protein that produces a display of the fused protein on the surface of the bacteriophage. The library consists of 2.7×109 electroporated sequences, amplified once to yield approximately 55 copies of each sequence in 10 μl of the supplied phage.
(§3) Immobilized 71A1 antibody was used to isolate the 12 amino acid peptides, shown in FIG. 13, that bound to the variable region. Thermo Scientific™ AminoLink Plus Coupling Resin was used to immobilize Mab 71A1. Negative control particles were made using monoclonal antibody 3C7 with specificity for an irrelevant peptide sequence. The Thermo Scientific™ AminoLink Plus Coupling Resin Protocol is provided that was used to produce the 71A1 particles panned with the NEB library. Briefly, 2 mL aminolink particle slurry was washed twice with 10 mL, 0.1 M sodium bicarbonate buffer pH 10 in a 15 mL conical tube by centrifugation for 10 minutes at 2000×g. 10 mgs of 71A1 antibody in this binding buffer was then added to the particles transferred to a 2 mL eppendorph tube and rotated at room temperature for 2 hours. The slurry was then added to a Millipore, Ultrafree-MC centrifugal filter unit and the resin washed 3× in 2 mL, 0.1M sodium phosphate, 0.15M NaCl, pH 7.2 binding buffer. Spun particles were then mixed with 2 mL pH 7.2 buffer and 40 μl of 50 mM Sodium Cyanoborohydride Solution and rotated for 4 hours. The aminoLink gel contains aldehyde functional groups that spontaneously react with primary amines on the antibody. The Schiff base bonds that form are then reduced to stable secondary amine bonds in the presence of the mild reducing agent, sodium cyanoborohydride. Particles were then washed twice with 2 mL 1M Tris HCL, pH 7.4, resuspended in 2 mL of this same buffer and 40 μl Sodium cyanoborohydride to block unbound sites on the particles, and rotated for 30 minutes. Particles washed 5 times with 1M sodium chloride were suspended in 1 mL PBS.

In another test the target is T5, peptide mimetic 5.
T5 construct: As for peptide mimetic 1; also called peptide 5
T5 peptide: DSVVPSYEVHHK
Described as above.
Description: as §2, §3

Another test addresses T6, peptide mimetic 4.
T6 construct: As for peptide mimetic 1; also called peptide 4
T6 peptide: YQIHHNTQKRGG
The description is as above.
Description: as §2, §3

In the next test the target is T7, peptide mimetic 10.
T7 construct: As for peptide mimetic 1; also called peptide 10
T7 peptide: EMAPVASANLPP
The test is described as above.
Description: as §2, §3

The next test has as its target T8, peptide mimetic 12.
T8 construct: As for peptide mimetic 1; also called peptide 12
T8 peptide: SPSHMYPSSLIQ
Described as above.
Description: as §2, §3

A further test has as its target T9, peptide mimetic 2.
T9 construct: As for peptide mimetic 1; also called peptide 2
T9 peptide: NLHQYPTAMQAR
The description is as above.
Description: as §2, §3

In another test the target is T10, peptide mimetic 3.
T10 construct: As for peptide mimetic 1; also called peptide 3
T10 peptide: SPPTYEIHHFSP
Described as above.
Description: as §2, §3

The next test addresses T11, peptide mimetic 9.
T11 construct: As for peptide mimetic 1; also called peptide 9
T11 peptide: GPHTYPPQIALT
Described as above.
Description: as §2, §3

Another test concerns the target T12, peptide mimetic 7.
T12 construct: As for peptide mimetic 1; also called peptide 7
T12 peptide: GWYEIHHPSQRA
The test is described as above.
Description: as §2, §3

Another test deals with T13, peptide mimetic 1.
T13 construct: also called peptide 1
T13 peptide: QIYEVHHRGYTD
The description is as above.
Description: as §2, §3

The target of a further test is T14, peptide mimetic 13.
T14 construct: As for peptide mimetic 1; also called peptide 13
T14 peptide: QVYEVHHRGYTD
Kind of test: indirect ELISA, peptide at 10 µg/mL on maleimide-activated plate, absorbance at 650 nm. As for the experimental part:
(§4) A standard, indirect enzyme linked immunosorbent assay (ELISA) with purified monoclonal antibody 71A1 was used to assay for binding to peptide mimetics 1-13 (sequences in FIG. 13) conjugated to maleimide-activated micro titer plates at 10 μg/mL in 0.1M Sodium bicarbonate buffer pH10 and blocked with PBS and 2% BSA. After one hour incubation, the wells were washed and then 100 ul of a secondary, Horseradish peroxidase (HRPO)-conjugated goat anti-mouse antibody was added and the plates, incubated for an additional hour before addition of TMB (3,3′,5,5′-Tetramethylbenzidine) substrate. Absorbance was measured in a spectrophotometer at 650 nm.
In general terms: An ELISA detects its analyte on a solid surface through an enzyme-linked reagent.

Another test deals with T15, peptide mimetic 11.
T15 construct: As for peptide mimetic 1; also called peptide 11
T15 peptide: NMYEWNHKDPNM
The description is as above. As for the experimental part: as §4

In the next test the target is T16, peptide mimetic 8.
T16 construct: As for peptide mimetic 1; also called peptide 8
T16 peptide: SYELHHKPLHAQ
The test is described as above. As for the experimental part:
as §4

Test [4] deals with T17, Aβ oligomers (oAβ) in human plasma (human, UniProt P05067 672-713).
T17 construct: Natural mixture; also called plasma oAβ; 71A1-positive oligomers in plasma
T17 sequence (P05067 672-713): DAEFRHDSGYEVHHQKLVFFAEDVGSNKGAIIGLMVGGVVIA
The test is described as follows: 71A1 capture / 3D6 detector sandwich immunoassay, sample with or without 8M GnCl.

For test [5], the target named is T18, soluble Aβ / Aβ oligomers (oAβ) of human AD brain extracts (human, UniProt P05067 672-713).
T18 construct: Natural mixture; also called Aβ from human brain soaking extract; AD brain soaking extract oAβ
T18 sequence (P05067 672-713): as above
Described as above.

For test [6], the target named is T19, Aβ / Aβ oligomers in human CSF (human, UniProt P05067 672-713).
T19 construct: Natural mixture; also called CSF Aβ; CSF Aβ oligomers
T19 sequence (P05067 672-713): as above
The description is as above.

Substitutions are numbered along the chain they refer to.

B1: monoclonal antibody 71A1 (antibody, V domains shown)
VH: EVQLQESGAELVRPGVSVKLSCKTSDYTFTSYWLHWFKQRPEQGLERIGEIDPSNGDADYSEKFKSKATLTVDKSSTTAYMQLASLTSEDSAVYYCAREAYGHYFDYWGQGTTLTVSS
VL: DVVMTQTPLSLPVSLGDQASISCRSSQSLEHSNGNTYLHWYLQKPGQSPKLLIYKLSNRFSGVPDRFSGSGSGTDFTLKISRVEAEDLGVYFCSQSTHVPYTFGGGTKLEIK
notes: Biotinylated when used as capture on streptavidin beads, resin or plates; also called Mab 71A1; mab 71 A1
Consider B1, for which the binding result in test [1] is “binds”; in test [2], “no binding”; with peptide mimetic 6, “binds”; in the test with peptide mimetic 5, “binds”; with peptide mimetic 4 it was “binds”; in the test with peptide mimetic 10 it was “binds”. The binding result with peptide mimetic 12, with peptide mimetic 2, with peptide mimetic 3, with peptide mimetic 9, with peptide mimetic 7 and with peptide mimetic 1 was “binds” each time. Besides, the binding result with peptide mimetic 13, with peptide mimetic 11 and with peptide mimetic 8 was “binds” throughout. The “fold less binding than to higher order Aβ (non-reduced S26C dimer)” value in test [3] is greater than 100 fold. For the same molecule, the figures for the “decrease of 71A1/3D6 signal after 8M GnCl denaturation” value in test [4], in [5] and in [6] were greater than 84%, greater than 70% and greater than 99%, respectively.

B2: monoclonal antibody 1G5 (antibody, V domains shown)
VH: B1 VH with E1Q, E6Q, S7P
VL: B1 VL
notes: Biotinylated when used as capture; also called Mab 1G5; isolate 1g
On to B2, for which the binding result in test [1] is listed as “binds”; in [2], “no binding”.

Values taken from US20240358805A1 (BRIGHAM AND WOMEN S HOSPITAL, published 2024).
